In publication PMC2830092 one finds stoichiometry N data, which are given here for 1 substance.

The target of this test is FLAG-Pen-2 (human) (UniProt Q9NZ42). Put plainly: STEM mass measurement.
Sequence of UniProt Q9NZ42 (Q9NZ42 whole entry): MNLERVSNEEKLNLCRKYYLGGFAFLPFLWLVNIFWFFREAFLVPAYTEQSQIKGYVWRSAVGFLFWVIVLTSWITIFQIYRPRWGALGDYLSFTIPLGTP

Consider “Aph1α2-HA (from UniProt Q96BI3 1-265) (natural protein)”, for which the stoichiometry N (commonly a count of units in the complex or per binding partner) was 1.
